Assays:
insulin receptor = molecular target: T1, insulin receptor (Rattus norvegicus, UniProt P15127); test: Insulin receptor binding assay on H35 cells
T1 construct: endogenous in cells; host or cells: H35 (rat hepatoma) cells

type 1 IGF receptor = molecular target: T2, type 1 IGF receptor (Mus musculus, UniProt Q60751); test: Type 1 IGF receptor binding assay on Swiss mouse 3T3 cells; conditions: for IC50, inhibits binding of 125I-IGF-II (type 1 IGF receptor): mutant value holds for material from either secretion or refolding route
T2 construct: endogenous in cells; host or cells: Swiss mouse 3T3 cells
Description: Swiss 3T3 cells at 5×10^4 cells/ml were seeded into 24 well plates at 5×10^3 cells/well in DMEM containing 10% FCS and incubated at 37°. The cells were used for assay after 5-6 days. For the binding assay, the growth medium was flicked out of the plate, and the cells washed twice with binding medium (serum free DMEM containing 25 mM HEPES, 1 mg/ml BSA and 2 mM glutamine). A further 400 μl of binding medium was added to each well along with 50 μl of sample or IGF-II standard (Bachem). Twofold dilutions of IGF-II were used for the standard curve to give final concentrations in the well from 300-1.56 ng/ml. […] The plate was incubated at room temperature for 2 hr., the assay medium removed and the cells washed four limes in PBS containing 1 mg/ml BSA and 0.1 μM KI. The plates were blotted dry and the cells solubilised for by the addition of 750 μl 0.5M NaOH containing 0.2% w/v Triton X100. After 15 min the lysed samples were transferred to tubes and the residual counts determined using a gamma counter.

type 2 IGF receptor = molecular target: T3, type 2 IGF receptor (Rattus norvegicus, UniProt G3V824); test: Type 2 IGF receptor binding assay on H35 (rat hepatoma) cells
T3 construct: endogenous in cells; host or cells: H35 (rat hepatoma) cells
Description: Binding to the type 2 IGF receptor was assessed on H35 (rat hepatoma) cells, see FIG. 11. Cells at 5×10^5 cells/ml were seeded into 24 well plates at 5×10^4 cells/well in DMEM containing 0.5% FCS and incubated at 37°. The cells were used for assay after 2-3 days. For the binding assay, the growth medium was flicked out of the plate, and the cells washed once with binding medium (serum free DMEM containing 25 mM HEPES, 1 mg/ml BSA and 2 mM glutamine).
A further 400 μl of binding medium was added to each well along with 50 μl of sample or IGF-II standard (Bachem). Twofold dilutions of IGF-II were used for the standard curve to give final concentrations in the well from 300-1.56 ng/ml. Labelled IGF-II was then added (50 μl of […]) to give a final concentration of 2 ng/ml and a total of about 40,000 dpm per well. The plate was incubated at room temperature for 3 hr., the assay medium removed and the cells washed four times in Hanks buffered salt solution containing 1 mg/ml BSA. The plates were blotted dry and the cells solubilised for by the addition of 750 μl 10 mM Tris HCl, 5 mM EDTA, 0.2% w/v SDS. After 15 min the lysed samples were transferred to tubes and the residual counts determined using a gamma counter.

[1] = refolded material (HRP fusion route)

T1 sequence (P15127 27-759 limits assumed): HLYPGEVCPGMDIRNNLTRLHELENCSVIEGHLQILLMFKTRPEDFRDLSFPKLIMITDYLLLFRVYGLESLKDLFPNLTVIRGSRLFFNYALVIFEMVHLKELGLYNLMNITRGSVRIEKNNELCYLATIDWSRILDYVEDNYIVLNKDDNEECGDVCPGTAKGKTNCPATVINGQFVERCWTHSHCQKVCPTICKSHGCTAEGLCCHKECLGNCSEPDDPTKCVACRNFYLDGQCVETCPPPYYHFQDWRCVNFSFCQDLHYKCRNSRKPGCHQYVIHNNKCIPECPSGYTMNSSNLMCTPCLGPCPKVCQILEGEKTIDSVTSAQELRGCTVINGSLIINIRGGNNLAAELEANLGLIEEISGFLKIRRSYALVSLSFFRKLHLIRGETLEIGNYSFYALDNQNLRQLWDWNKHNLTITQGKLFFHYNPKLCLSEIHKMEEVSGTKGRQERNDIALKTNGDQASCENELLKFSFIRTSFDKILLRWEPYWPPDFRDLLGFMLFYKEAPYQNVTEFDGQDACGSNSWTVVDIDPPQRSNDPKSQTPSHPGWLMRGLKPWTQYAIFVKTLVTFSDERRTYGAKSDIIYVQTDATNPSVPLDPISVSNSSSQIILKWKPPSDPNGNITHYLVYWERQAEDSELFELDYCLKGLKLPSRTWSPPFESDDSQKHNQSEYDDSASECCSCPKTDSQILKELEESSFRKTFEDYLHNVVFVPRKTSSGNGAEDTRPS
T1 sequence (P15127 764-1383 partner limits assumed): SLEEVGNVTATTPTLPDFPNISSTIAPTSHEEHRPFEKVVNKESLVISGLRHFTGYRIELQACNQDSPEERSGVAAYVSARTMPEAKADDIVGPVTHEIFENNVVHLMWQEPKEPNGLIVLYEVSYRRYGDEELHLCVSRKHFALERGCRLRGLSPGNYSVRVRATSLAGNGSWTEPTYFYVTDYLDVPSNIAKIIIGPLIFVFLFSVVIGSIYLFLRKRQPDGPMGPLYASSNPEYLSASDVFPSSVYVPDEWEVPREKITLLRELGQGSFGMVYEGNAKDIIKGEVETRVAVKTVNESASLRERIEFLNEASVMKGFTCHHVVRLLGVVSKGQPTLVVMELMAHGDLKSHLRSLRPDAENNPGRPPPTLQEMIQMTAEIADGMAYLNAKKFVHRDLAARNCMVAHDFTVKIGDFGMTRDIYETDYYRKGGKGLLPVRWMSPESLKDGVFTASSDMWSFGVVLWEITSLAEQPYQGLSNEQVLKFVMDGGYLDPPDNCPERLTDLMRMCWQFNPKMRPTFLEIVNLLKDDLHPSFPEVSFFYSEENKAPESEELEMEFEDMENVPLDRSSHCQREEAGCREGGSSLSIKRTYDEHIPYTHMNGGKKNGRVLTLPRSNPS
T3 sequence (G3V824 36-2481): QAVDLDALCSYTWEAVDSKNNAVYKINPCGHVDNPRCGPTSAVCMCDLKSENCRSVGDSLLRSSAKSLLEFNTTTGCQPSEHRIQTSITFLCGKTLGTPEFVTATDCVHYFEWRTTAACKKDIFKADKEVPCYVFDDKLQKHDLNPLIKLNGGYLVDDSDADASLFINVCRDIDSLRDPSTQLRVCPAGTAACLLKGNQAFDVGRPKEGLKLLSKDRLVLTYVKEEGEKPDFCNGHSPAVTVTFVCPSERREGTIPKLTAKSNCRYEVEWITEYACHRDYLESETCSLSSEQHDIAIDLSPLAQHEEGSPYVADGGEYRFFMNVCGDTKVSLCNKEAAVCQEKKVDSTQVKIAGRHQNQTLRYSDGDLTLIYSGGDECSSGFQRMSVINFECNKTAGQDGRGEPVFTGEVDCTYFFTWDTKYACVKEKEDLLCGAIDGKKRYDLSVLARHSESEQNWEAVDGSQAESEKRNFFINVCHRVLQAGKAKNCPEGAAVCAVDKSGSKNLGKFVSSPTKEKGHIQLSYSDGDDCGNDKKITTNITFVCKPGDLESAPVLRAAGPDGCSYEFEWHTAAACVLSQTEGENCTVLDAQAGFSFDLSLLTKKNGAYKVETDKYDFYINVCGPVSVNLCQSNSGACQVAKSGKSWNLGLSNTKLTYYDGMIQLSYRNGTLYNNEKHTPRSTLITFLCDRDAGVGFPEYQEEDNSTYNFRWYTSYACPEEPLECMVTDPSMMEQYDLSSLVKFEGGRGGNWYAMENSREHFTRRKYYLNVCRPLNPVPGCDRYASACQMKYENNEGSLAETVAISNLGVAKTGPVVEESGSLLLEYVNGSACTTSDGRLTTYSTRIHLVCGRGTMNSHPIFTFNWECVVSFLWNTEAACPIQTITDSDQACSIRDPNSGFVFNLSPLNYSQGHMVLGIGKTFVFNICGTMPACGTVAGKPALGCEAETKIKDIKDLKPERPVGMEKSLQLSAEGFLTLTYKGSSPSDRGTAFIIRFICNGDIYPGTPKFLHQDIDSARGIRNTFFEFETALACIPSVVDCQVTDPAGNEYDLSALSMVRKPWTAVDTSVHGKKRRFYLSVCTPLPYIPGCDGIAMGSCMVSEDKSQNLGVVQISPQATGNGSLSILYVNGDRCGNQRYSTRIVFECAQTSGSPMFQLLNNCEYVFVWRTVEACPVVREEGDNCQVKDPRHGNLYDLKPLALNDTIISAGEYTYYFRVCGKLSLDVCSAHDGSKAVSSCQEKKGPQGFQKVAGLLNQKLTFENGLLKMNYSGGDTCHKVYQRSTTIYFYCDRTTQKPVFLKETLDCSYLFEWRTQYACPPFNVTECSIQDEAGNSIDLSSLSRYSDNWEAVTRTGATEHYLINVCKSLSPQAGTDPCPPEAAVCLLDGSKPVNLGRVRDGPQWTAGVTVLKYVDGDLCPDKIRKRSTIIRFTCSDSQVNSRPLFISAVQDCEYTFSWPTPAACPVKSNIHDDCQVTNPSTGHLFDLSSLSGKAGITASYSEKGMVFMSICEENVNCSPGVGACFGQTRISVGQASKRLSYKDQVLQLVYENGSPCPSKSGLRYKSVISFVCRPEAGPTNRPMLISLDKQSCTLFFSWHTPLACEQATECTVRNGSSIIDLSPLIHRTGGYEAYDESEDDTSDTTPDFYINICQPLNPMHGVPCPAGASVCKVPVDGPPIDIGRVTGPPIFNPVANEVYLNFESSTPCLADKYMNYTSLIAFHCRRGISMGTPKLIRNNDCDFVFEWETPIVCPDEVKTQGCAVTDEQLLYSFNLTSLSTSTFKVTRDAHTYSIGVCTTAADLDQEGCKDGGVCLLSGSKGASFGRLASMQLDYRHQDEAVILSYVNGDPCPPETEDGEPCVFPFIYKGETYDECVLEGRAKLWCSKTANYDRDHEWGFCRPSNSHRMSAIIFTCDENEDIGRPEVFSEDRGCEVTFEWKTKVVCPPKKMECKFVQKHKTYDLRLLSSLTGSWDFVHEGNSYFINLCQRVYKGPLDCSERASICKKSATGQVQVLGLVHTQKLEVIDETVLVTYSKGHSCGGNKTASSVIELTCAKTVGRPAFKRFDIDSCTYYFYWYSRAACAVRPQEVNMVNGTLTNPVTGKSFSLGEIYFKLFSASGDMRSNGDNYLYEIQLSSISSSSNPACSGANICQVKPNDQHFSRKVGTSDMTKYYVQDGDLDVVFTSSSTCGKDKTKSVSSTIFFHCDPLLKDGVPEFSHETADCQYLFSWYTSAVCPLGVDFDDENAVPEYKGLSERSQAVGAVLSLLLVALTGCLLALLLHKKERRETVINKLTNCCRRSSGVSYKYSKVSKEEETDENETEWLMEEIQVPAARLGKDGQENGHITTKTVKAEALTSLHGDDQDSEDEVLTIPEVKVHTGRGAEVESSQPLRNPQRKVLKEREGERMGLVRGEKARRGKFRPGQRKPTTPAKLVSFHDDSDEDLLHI

**Q.** With “wild-type refolded material: wild-type IGF-II made by the HRP fusion route and refolded [reference compound]” as the substance, how does the “IC50, inhibits binding of 125I-insulin (insulin receptor)” value (from here on “IC50, inhibits binding of 125I-insulin”) (insulin receptor; [1]) read?
**A.** The value was 0.16 µg/mL.

**Q.** What about the “IC50, inhibits binding of 125I-IGF-II (type 1 IGF receptor)” value (type 1 IGF receptor) of the same substance?
**A.** Its value is 0.1 µg/mL.

**Q.** What about the “IC50, inhibits binding of 125I-IGF-II (type 2 IGF receptor)” value (type 2 IGF receptor; [1]) of the same substance?
**A.** The value was 0.03 µg/mL.

**Q.** Which “IC50, inhibits binding of 125I-IGF-II (type 1 IGF receptor)” value (type 1 IGF receptor) does the source give for “wild-type standard (Bachem): recombinant IGF-II from a commercial supplier (Bachem) used as a reference standard [reference compound]” here?
**A.** The value was 0.06 µg/mL.

**Q.** What about the “IC50, inhibits binding of 125I-IGF-II (type 2 IGF receptor)” value (type 2 IGF receptor; commercial reference standard (Bachem)) of the same substance?
**A.** Its value is 0.018 µg/mL.

**Q.** How did the “IC50, inhibits binding of 125I-insulin” value (insulin receptor; [1]) turn out when “IGF-II (Q^37 Q^38): IGF-II with the modifications Arg37Gln and Arg38Gln” was run?
**A.** The value was 1.3 µg/mL.

**Q.** And the “IC50, inhibits binding of 125I-insulin” value (insulin receptor; secreted material)?
**A.** The value was 1.6 µg/mL.

**Q.** What about the “affinity for the type 1 IGF receptor versus native IGF-II” value (type 1 IGF receptor) of the same substance?
**A.** Its value is “comparable to native IGF-II”.

**Q.** And the “IC50, inhibits binding of 125I-IGF-II (type 1 IGF receptor)” value (type 1 IGF receptor)?
**A.** Its value is 0.21 µg/mL.

**Q.** What about the “affinity for the type 2 IGF receptor versus native IGF-II” value (type 2 IGF receptor) of the same substance?
**A.** Its value is “comparable to native IGF-II”.

**Q.** What about the “IC50, inhibits binding of 125I-IGF-II (type 2 IGF receptor)” value (type 2 IGF receptor; [1]) of the same substance?
**A.** Its value is 0.06 µg/mL.

**Q.** And the “IC50, inhibits binding of 125I-IGF-II (type 2 IGF receptor)” value (type 2 IGF receptor; secreted material)?
**A.** Its value is 0.03 µg/mL.
